Measured values published in the nanobody polyreactivity screen of Harvey et al. (2022).

Test: yeast display, Sf9 membrane polyspecificity reagent, FACS + sequencing; frameworks hold sequencing errors
In short: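 In a synthetic yeast display library (Saccharomyces cerevisiae BJ5465), nanobody expression was induced with galactose for 36–48 hours. FACS gates were set low and high (top ~1%) using anti-HA fluorescence for expression and streptavidin fluorescence for binding of the Sf9 membrane reagent. Each polyreactivity label is drawn from the gate of origin.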

Sequence	polyreactivity (PSR sort gate)
QVQLVESGGGLVQAGGSLRLSCAASGSIFAPYAMGWYRQAPGKERELVAAIRWSGGRTYYADSVKGRFTISRDNAKNTVYLQMNSLKPEDTAVYYCNAVIHRLGKTYGTNRVDYWGQGTQVTVSS	high polyreactivity
QVQLVESGGGLVQAGGSLRLSCAASGSIFAPYAMGWYRQAPGKERELVAAISRSGGSTYYADSVKGRFTISRDNAKNTVYLQMNSLKPEDTAVYYCAVRNGLRQYRLDYWGQGTQVTVSS	high polyreactivity
QVQLVESGGGLVQAGGSLRLSCAASGSIFAPYAMGWYRQAPGKERELVATIRTTGDSTYYADSVKGRFTISRDNAKNTVYLQMNSLKPEDTAVYYCAAQQGVISRGNYWGQGTQVTVSS	low polyreactivity
QVQLVESGGGLVQAGGSLRLSCAASGSIFARYAMGWYRQAPGKERELVAAISRNGGSTYYADSVKGRFTISRDNAKNTVYLQMNSLKPEDTAVYYCAATQVGHYRIYDYWGQGTQVTVSS	low polyreactivity
QVQLVESGGGLVQAGGSLRLSCAASGSIFARYAMGWYRQAPGKERELVAAISSNSASTYYADSVKGRFTISRDNAKNTVYLQMNSLKPEDTAVYYCATAYRSYWLNDYWGQGTQVTVSS	low polyreactivity
QVQLVESGGGLVQAGGSLRLSCAASGSIFASNAMGWYRQAPGKEREFVAAIRYSGGITYYADSVKGRFTISRDNAKNTVYLQMNSLKPEDTAVYSCAAYGWGIRWYSRFDYWGQGTPVTVSS	high polyreactivity
QVQLVESGGGLVQAGGSLRLSCAASGSIFASNAMGWYRQAPGKEREFVAAITWRTDRTYYADSVKGRFTISRDNAKNTVFLQMNSLKPEDTAVYYCAADTWFYRFYYWGQCTQVTVSS	high polyreactivity
QVQLVESGGGLVQAGGSLRLSCAASGSIFASYAMGWYRQAPGKERELVAAISRRAVRTYYADSVKGRFTISRDNAKNTVYLQMNSLKPEDTAVYYCNATRGQYVGRYYYWGQGTQVTVSS	high polyreactivity
QVQLVESGGGLVQAGGSLRLSCAASGSIFASYDMGWYRQAPGKERELVARITFNGGSTYYADSVKGRFTISRDNAKNTVYLQMNSLKPEETAVYYCNADYPWEYDYWGLGTQVTVSS	low polyreactivity
QVQLVESGGGLVQAGGSLRLSCAASGSIFATNAMGWYRQAPGKERELVASISSGGGSTYDADSVKGRFTLSRDNAKNTVYLQMNSLKPEDTAVYYCARRIGQGSRPYWLETWRYPYDYWGQGTQVTVSS	low polyreactivity
QVQLVESGGGLVQAGGSLRLSCAASGSIFAVYAMGWYRQAPGKERELVAASSTDYADSVKGRFTISRDNAKNTVYLQMNSLKPEDTAVYYCAKVGFGIPGGFYFWGQGTQVTVSS	low polyreactivity
QVQLVESGGGLVQAGGSLRLSCAASGSIFAVYAMGWYRQAPGKERELVASISRTGTTNYADSVKGRFTISRDNAKNTVYLQMNSLKPEDTAVYYCAADTWGLPDGYWYSEHPEFDYWGQGTQVTVSS	low polyreactivity
QVQLVESGGGLVQAGGSLRLSCAASGSIFAVYAMGWYRQAPGKERELVASISRTGTTNYADSVKGRFTISRDNAKNTVYLQMNSLKPEDTAVYYCNADAYLYYKYHWGFTFYQYEYWGQGTQVTVSS	low polyreactivity
QVQLVESGGGLVQAGGSLRLSCAASGSIFAVYAMGWYRQAPGKERELVASITNDGSTYADSVKGRFTISRDNAKNTVYLQINSQKPEDTAVYYCNADYLTYFTTFDYWGQGTQVTVSS	low polyreactivity
QVQLVESGGGLVQAGGSLRLSCAASGSIFAVYAMGWYRQAPGKERELVASITNDGSTYADSVKGRFTISRDNAKNTVYLQLNSLKPEDTAVYYCNADYLTYFTTFDYWGQGTQVTVSS	low polyreactivity
QVQLVESGGGLVQAGGSLRLSCAASGSIFAVYAMGWYRQAPGKERELVAVITRSGGSTYYADSVKGRFTISRDNAKNTVYLQMNSLKPEDTEVYYCAARSGYGYTRYEYWGQGTQVTVSS	high polyreactivity
QVQLVESGGGLVQAGGSLRLSCAASGSIFAVYTMGWYRQAPGKERELVAAINWSGARTYYADSVKGRFTISRDNEKNTVYLQMNSLKPEDSAVYYCAAESRLGVAYIYWGQGTQVTVSS	low polyreactivity
QVQLVESGGGLVQAGGSLRLSCAASGSIFAWYAMGWYRQAPGKERELVATITWSGGSTYYADSVKGRFTISRDNAKNTVYLQMNSLKPEDTAVYYCAAEVVGIWYDLWYQGDYWGQGTQVTVSS	low polyreactivity
QVQLVESGGGLVQAGGSLRLSCAASGSIFAWYGMGWYRQAPGKERELVAAISTAGSTNYADSVKGRFTISRDNAKNTVYLQMNSLKQEDSAVYYCAKKSSWYYPERFDYWGQGTQVNVSS	low polyreactivity
QVQLVESGGGLVQAGGSLRLSCAASGSIFAYAMGWDRQAPGKERELFAAISGGSTYYADSVKGRFTISRDNAKNTVYLQMNSLNPEDTAVYSCAADLDDERYYWGQGTQVTVSS	low polyreactivity
QVQLVESGGGLVQAGGSLRLSCAASGSIFAYNAMGRYRQAPGKEREYVAAISQSGGRTYYADSVKGRFTISRDTSKNTVYLQMNSLKPEDTAVYYCATDGIRLTRHRDYDYWGQGTQVTVSS	low polyreactivity

Sequence	polyreactivity (PSR sort gate)
QVQLVESGGGLVQAGGSLRLSCAASGSIFAYNAMGWYRQAPGKEREFVAVITRSDDSTYADSVKGRFTISRDNAKNTVFLQMNRLKPEDTAVYDCAAQPFVIDGGYRGDYWGQGTQVTVSS	low polyreactivity
QVQLVESGGGLVQAGGSLRLSCAASGSIFAYNAMGWYRQAPGKERELVAAISAGGRTKYADSVKGRFTISRDNAKNTVYLQMNCLKPEDTAVYYCAAESYTGKYSWVWKWYDYWGQGTQVTVSS	low polyreactivity
QVQLVESGGGLVQAGGSLRLSCAASGSIFAYNAMGWYRQAPGKERELVAAITRSGVNTYYADSVKGRFTISRDNAKNTVYLQMNRLKPEDTAVYYCNAVFWGLQKWPQ	low polyreactivity
QVQLVESGGGLVQAGGSLRLSCAASGSIFAYNAMGWYRQAPGKERELVAGISSRGVSTYADSVKGRFTISRDNAKNTVYLQMNSLKPEDTAVYYCARGGYWGKRGRYDYWGQGTQVTVSS	low polyreactivity
QVQLVESGGGLVQAGGSLRLSCAASGSIFAYNGMGGYRQPPGKERELVAAISRRGGSTTYADSVKGRFTISRDNAKNTVYLQMNSLKPEDTAVYYCNTGAWSVRKMYYWGQGTQVTVSS	high polyreactivity
QVQLVESGGGLVQAGGSLRLSCAASGSIFAYYAMGWYRQAPGKEREFVAAISKRGGRTYYADSVKGRFTISRDNAKNTVYLQMNSLKPEDTAVYYCAAPWAYPRSGGDYWGQGTQVTVSS	high polyreactivity
QVQLVESGGGLVQAGGSLRLSCAASGSIFAYYAMGWYRQAPGKERELVAAISRRGGSTYYADSVKGRFTISRDNAKNTVYLQMNSLKPEDTAVYYCAARRSTQYKTGVDSWGQGTQVTVSS	high polyreactivity
QVQLVESGGGLVQAGGSLRLSCAASGSIFAYYAMGWYRQAPGKERELVAAISSSGGSTTYADSVKGRFTISRDNAKNTVYLQMNSLKPEDTAVYYCNAAWRRSRYYYWGQGTQVTVSS	high polyreactivity
QVQLVESGGGLVQAGGSLRLSCAASGSIFAYYAMGWYRQAPGKESELVARITYSTDGTYYADSVKGRFTISRDNAKNTVYLQMNSLKPEDTAVYYCAVDTWWGFKRYKFDYWGQGTQVTVSS	low polyreactivity
QVQLVESGGGLVQAGGSLRLSCAASGSIFAYYSMGWYIQAPGKERELVAAISWSGGSTYYADSVKGRFTISRDNAKNTVYLQMNSLKPEDTAVYYCNVARSYSKMYWGQGTQVTVSS	high polyreactivity
QVQLVESGGGLVQAGGSLRLSCAASGSIFAYYTMGWYRQAPGKERELVARISSRGGRTYYADSVKGRFTISRDNAKNTVYLQMNSLKPEDTAVYYCNAGYSYRKYDYWGQGTQVTVSS	high polyreactivity
QVQLVESGGGLVQAGGSLRLSCAASGSIFAYYTMGWYRQAPGNERELVATISSGDITNYADSVKGRFTISRDNAKNTVYLQMNSLKPEDTAVYYCAAAELTSYYRTFIHQDYDYWGQGTQVTVSS	low polyreactivity
QVQLVESGGGLVQAGGSLRLSCAASGSIFAYYVMGWYRHAHGKERELVAAISARGGRTYYADSVKGRFTISRDNAKNTVYLQMNSLKQEDTAVYYCNALDQRYSQAVEYDYWGQGTQVTVSS	high polyreactivity
QVQLVESGGGLVQAGGSLRLSCAASGSIFCRYDMGWLDRRLGKKGSSLPLLLVLVTTRTTQTPVKGRFTISRDNAKNTVYLQIICLKPEDTAVYNCAADLRASGLKYEYWGQGTQVTVSS	low polyreactivity
QVQLVESGGGLVQAGGSLRLSCAASGSIFCYNTMGWYRQAPGKERELVAAITFSGGSTYYADSVKGRFTISRDNAKNTVYLKMNSLKPEDTAVYYCAAVFYSAVGYYYWGQGTQVTVSS	low polyreactivity
QVQLVESGGGLVQAGGSLRLSCAASGSIFDAYALGWYRQAPGKERELVADITFSAGRTYYADSVKGRFTITRDNAKNTVYLQMNSLKPEDTAVYYCAADSIVGDGYWSYYWGQGTQVTVSS	low polyreactivity
QVQLVESGGGLVQAGGSLRLSCAASGSIFDDNTMGWYRQAPGKERELVAAISSRGGSTYYADSVKGRFTISRDNAKNTVYLQMNSLKPEDTAVYYCATGPRWTWEGSRWKLEFDSWGQGTQVTVSS	low polyreactivity
QVQLVESGGGLVQAGGSLRLSCAASGSIFDDYAMGCYIHAPGKERELVAAITWNGGSTYADSVKGRFTISRDNAKNTVYLQMNSLKPEDTAVYYCAADYFVYWYYGYGYWGQGTQVTVSS	low polyreactivity
QVQLVESGGGLVQAGGSLRLSCAASGSIFDDYAMGWYRQAPGKERELVAAISDSGGSTSYADSVKGRFTISRDNAKNTVYFQMNSLKPEDTAVYYCNADRDDDYDYWGQGTQVTVSS	low polyreactivity
QVQLVESGGGLVQAGGSLRLSCAASGSIFDDYGMGWYRQAPGKEWEFVADITSRGTRTYYADSVKGRFTISRDNAKNTVYLQMNCLKPEDTAGYYFNTLVGVDFWLVDYWGQGTQVTLSS	low polyreactivity
